One block for each molecule: values may come before it.
How the values were obtained:
[1] = biological target: cytochrome P450 17A1 (Homo sapiens) (UniProt P05093); test: surface plasmon resonance; settings: cited from earlier work
[2] = biological target: human cytochrome b5 K24C, unlabeled (human) (UniProt P00167); test: SDS-PAGE with and without reducing agent; purified b5 variant run with or without β-mercaptoethanol (10%, v/v) or DTT; monomer at 17 kDa, dimer at 34 kDa; disulfide-linked dimer
[3] = biological target: human cytochrome b5 T70C, unlabeled (human) (UniProt P00167); test: as above
[4] = biological target: P450 17A1 peptide (putative b5 binding site of P450 17A1) (human); test: fluorescence polarisation; competition: nonlabeled WT b5 at various concentrations added to the complex of Alexa 488-b5 T70C (10 nM) and P450 17A1 peptide (100 μM)
[5] = biological target: P450 17A1 peptide (putative b5 binding site of P450 17A1) (human); test: fluorescence polarisation; competition: nonlabeled WT b5 at various concentrations added to the complex of Alexa 488-b5 K77C (10 nM) and P450 17A1 peptide (100 μM)
[6] = biological target: previously constructed Alexa 488-T70C-b5 (ref. 19; nonspecifically labelled) (human) (UniProt P00167); test: SDS-PAGE with and without reducing agent; purified b5 variant run with or without β-mercaptoethanol (10%, v/v) or DTT; monomer at 17 kDa, dimer at 34 kDa; disulfide-linked dimer
[7] = biological target: Alexa 488-labeled human cytochrome b5 T70C (singly labelled at Cys-70, this paper) (human) (UniProt P00167); test: fluorescence polarisation; P450 17A1 protein or P450 17A1 peptide added to Alexa 488-labeled b5 variant (10 nM) in 1 mM potassium phosphate buffer, pH 7.4, 384-well plate, 50 μl; anisotropy fitted with a quadratic equation
[8] = biological target: Alexa 488-labeled human cytochrome b5 K77C (human) (UniProt P00167); test: as above

Molecule: cytochrome b5 (from UniProt P00167)
Kd [1]: 440 nM

Molecule: human cytochrome b5, WT, nonlabeled (from UniProt P00167 1-134) (natural protein)
IC50 [4]: 129 nM
IC50 [5]: 223 nM

Molecule: previously constructed Alexa 488-T70C-b5 (ref. 19; nonspecifically labelled) (from UniProt P00167 1-134) (natural protein)
stoichiometry N [6]: 2

Now from value to molecule:

stoichiometry N [2]: 2
Molecule: human cytochrome b5 K24C, unlabeled (from UniProt P00167 1-134) (natural protein)

stoichiometry N [3]: 2
Molecule: human cytochrome b5 T70C, unlabeled (from UniProt P00167 1-134) (natural protein)

Kd [7]: 113000 nM
Kd [8]: 52000 nM
Molecule: RNRLLLLEATIR [P450 17A1 peptide (putative b5 binding site of P450 17A1)]

Kd [7]: 379 nM
Kd [8]: 125 nM
B1: human cytochrome P450 17A1 (steroid 17α-hydroxylase/17,20-lyase) (enzyme)
chain: MWELVALLLLTLAYLFWPKRRCPGAKYPKSLLSLPLVGSLPFLPRHGHMHNNFFKLQKKYGPIYSVRMGTKTTVIVGHHQLAKEVLIKKGKDFSGRPQMATLDIASNNRKGIAFADSGAHWQLHRRLAMATFALFKDGDQKLEKIICQEISTLCDMLATHNGQSIDISFPVFVAVTNVISLICFNTSYKNGDPELNVIQNYNEGIIDNLSKDSLVDLVPWLKIFPNKTLEKLKSHVKIRNDLLNKILENYKEKFRSDSITNMLDTLMQAKMNSDNGNAGPDQDSELLSDNHILTTIGDIFGAGVETTTSVVKWTLAFLLHNPQVKKKLYEEIDQNVGFSRTPTISDRNRLLLLEATIREVLRLRPVAPMLIPHKANVDSSIGEFAVDKGTEVIINLWALHHNEKEWHQPDQFMPERFLNPAGTQLISPSVSYLPFGAGPRSCIGEILARQELFLIMAWLLQRFDLEVPDDGQLPSLEGIPKVVFLIDSFKVKIKVRQAWREAQAEGST

Reference: PMC10878793
